The target of assay [1] is T1, Human BAFF (residues 82-285) (human, UniProt Q9Y275 82-285).
T1 construct: also called BAFF82-285
In words: SPR (BIAcore 3000), BAFF immobilized, 1:1 model.
Procedure: CM5 chips from BIAcore were docked according to manufacturer instructions. Then, BIAcore system was primed with 0.2 μm filtered buffer containing 10 mM Hepes pH 7.2, 150mM NaCl, 0.005% Tween20. After buffer priming, the flow cells were normalized with 70% glycerol. Each flow cell surface was activated individually in preparation for linkage of the ligand to the chip with a 1:1 mixture of EDC(N-ethyl-N′-(3-dimethyl aminopropyl)-carbodiimide hydrochloride) and NHS (N-hydroxysuccinimide). […] Generally, the ligand to be immobilized (30 μg/ml in 10 mM NaOAc, pH 5 buffer) was injected into the system at 40 μl/min. Once approximately 400 RU was generated, the flow cell was blocked with ethanolamine. […] The system was then primed again.
The ligand-receptor complex was allowed to dissociate by washing the flow cell at 30 μl/min for 600 seconds. Alternatively, if several binding measurements over the same flow cell were to be performed, the ligand-receptor complex was allowed to dissociate by washing the flow cell at 30 μl/min for 900 seconds. Sensorgrams were recorded for each binding assay. A 1:1 Langmuir binding equation was used to simultaneously fit the association and dissociation rates of the ligand-analyte interactions. kₐ, kd, KD were calculated using curve fit analysis software provided with the BiaCore instrument

The target of assay [2] is T1, Human BAFF (residues 82-285). As to the kind of experiment: competitive displacement ELISA on immobilized BAFF; unbiotinylated BCMA-Fc varied, tracer biotinylated miniBR3.
Procedure: The plate washed with PBS and blocked for 1 hr with 200 μl of 0.2% BSA in PBS at room temperature. […] The plate washed with PBS/Tween-20 and incubated with 100 μl/well of 0.1 U/ml Streptavidin-POD (Boehringer Mannheim) for 15 minutes at room temperature. After washing the plate with PBS/0.05% Tween-20 followed by a final wash in PBS, the plate was incubated for 5 min with 100 μl/well PBS substrate solution containing 0.8 mg/ml OPD (Sigma) and 0.01% H₂O₂.
Assay [3] shares this target. As to the kind of experiment: competitive displacement ELISA; immobilized BAFF, tracer biotinylated mini-BR3; bivalent Fc construct (avidity); competition ELISA.
Assay [4] shares this target. As to the kind of experiment: SPR (BIAcore 3000), BAFF immobilized.

T1 sequence (Q9Y275 82-285): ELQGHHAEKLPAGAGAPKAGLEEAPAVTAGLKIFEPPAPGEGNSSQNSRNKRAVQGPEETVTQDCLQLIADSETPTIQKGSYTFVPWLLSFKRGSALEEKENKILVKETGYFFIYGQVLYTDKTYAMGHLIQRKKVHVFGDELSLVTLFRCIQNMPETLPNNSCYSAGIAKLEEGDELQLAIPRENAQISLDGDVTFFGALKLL

B1: BCMA-Fc (Fc fusion, not shown: a dimerising Fc or GST)
chain: AGQCSQNEYFDSLLHACIPCQLRCSSNTPPLTCQRYCNASVTNSVKG
notes: also called BCMA(wt)-Fc; BCMA-Fc wt
With B1, in assay [1], the Kd was determined as 4.9 nM, the koff is 0.0034 s⁻¹ and the kon worked out at 680000 M⁻¹ s⁻¹. In addition, in assay [2], the “IC50 (read off the curve)” value is approximately 9 nM. This molecule yielded an IC50 in assay [3] of 13 nM.

B2: BCMA ECD purified from baculovirus expression (receptor, not shown: small tags and cut ends)
chain: MAGQCSQNEYFDSLLHACIPCQLRCSSNTPPLTCQRYCNASVTNSVKGTN
notes: also called BCMA(baculovirus); baculovirus BCMA
As for B2, the binding result in assay [4] is listed as “no binding (tested: analyte 6.25 nM to 200 nM)”.

The record behind these values is patent US20070249530A1 (Genentech, published 2007).
